In patent publication US20200239537A1 (GOVERNORS OF THE UNIVERSITY OF ALBERTA, published 2020):
*1 amine or outer side, *2 acyl side, *3 side chain or, on linkers, in order; H or OH if unused. Where no end group is shown, it is not given here. [ ]: non-standard residue; d: D form. The star is where a group is joined. azaArg = aza-arginine, alpha-carbon replaced by nitrogen, N=C(N)NCCCN(N[*:1])C(=O)[*:2]; Phe(4-Br) = N[C@@H](Cc1ccc(Br)cc1)C(=O)O; azaLeu = CC(C)CN(N[*:1])C(=O)[*:2]; Palmitoyl = CCCCCCCCCCCCCCCC(=O)*; αMeR = C[C@](N)(CCCNC(=N)N)C(=O)O; NMeL = CN[C@@H](CC(C)C)C(=O)O; αMeL = CC(C)C[C@](C)(N)C(=O)O; Nle = CCCC[C@H](N)C(=O)O; Aib = CC(C)(N)C(=O)O

Tests used:
[1] = target: T1, wild-type rat apelin receptor tagged at its C-terminus with EGFP (rat, UniProt Q9JHG3 1-377); assay: displacement of 0.2 nM [125I]-pyr-1-apelin-13; membranes of CHO cells expressing rat apelin receptor-EGFP
T1 construct: whole, on cells; Used as crude membrane preparations from CHO cells stably expressing the receptor; also called wild-type rat apelin receptor-EGFP; not shown: EGFP tag at the C-terminus
T1 sequence (looked up): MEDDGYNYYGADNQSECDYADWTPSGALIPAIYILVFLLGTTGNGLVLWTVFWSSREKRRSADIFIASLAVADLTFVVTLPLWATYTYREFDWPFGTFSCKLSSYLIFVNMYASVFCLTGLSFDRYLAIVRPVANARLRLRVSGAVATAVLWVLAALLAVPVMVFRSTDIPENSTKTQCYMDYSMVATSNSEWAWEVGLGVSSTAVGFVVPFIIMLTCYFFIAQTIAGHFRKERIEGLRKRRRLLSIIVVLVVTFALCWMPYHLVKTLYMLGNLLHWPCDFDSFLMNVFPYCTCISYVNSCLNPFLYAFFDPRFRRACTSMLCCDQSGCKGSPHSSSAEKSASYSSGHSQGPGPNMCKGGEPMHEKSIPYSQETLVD
Description: This experiment evaluated the ability of peptides of the present embodiments to bind to the wild-type rat apelin receptor, in order to examine the impact of synthetic modification within the critical RPRL motif of the apelin peptides.
The reaction was stopped by adding 4 mL of cold binding buffer, filtered on Whatman GF/C filters and washed with 5 mL of cold binding buffer. Radioactivity was then counted using a Wizard 1470 Wallac gamma counter (Perkin Elmer, Turku, Finland). Binding experiment data were analyzed with GraphPad Prism.

[2] = target: T2, recombinant human APJ receptor (Chem-5-APJ cells) (human, UniProt P35414 1-380); assay: cell-based or functional assay
T2 sequence (looked up): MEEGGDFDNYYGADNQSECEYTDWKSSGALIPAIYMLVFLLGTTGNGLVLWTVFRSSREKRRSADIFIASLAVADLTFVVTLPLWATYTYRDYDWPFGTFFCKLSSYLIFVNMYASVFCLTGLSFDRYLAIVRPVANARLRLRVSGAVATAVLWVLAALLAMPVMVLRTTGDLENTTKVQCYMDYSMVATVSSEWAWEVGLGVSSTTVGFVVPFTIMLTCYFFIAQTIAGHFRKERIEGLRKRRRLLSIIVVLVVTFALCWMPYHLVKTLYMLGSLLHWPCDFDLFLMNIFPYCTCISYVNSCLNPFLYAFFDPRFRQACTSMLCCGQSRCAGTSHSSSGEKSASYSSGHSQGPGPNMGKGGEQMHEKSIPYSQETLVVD

[3] = target: T2, recombinant human APJ receptor …; assay: cell-based or functional assay; remark: listed apart in the source

B1: apelin-17 A2 (5) (peptide)
peptide: KFRRQRPRLSHKGP[Nle][Aib][Phe(4-Br)]
notes: Synthetic ACE2-resistant analogue; also called parent peptide 5
Ki [1]: 0.19 nM
EC50 (nM), Ca2+ mobilization assay [2]: 4 nM

B2: Apelin-14A2 (54) (peptide)
peptide: RQRPRLSHKGP[Nle][Aib][Phe(4-Br)]
EC50 of Ca2+ mobilization, fold against the 17-mers [3]: ~200 fold
EC50 (nM), Ca2+ mobilization assay [2]: 568 nM

B3: Apelin-NMe14A2 (55) (peptide)
peptide: RQRPR[NMeL]SHKGP[Nle][Aib][Phe(4-Br)]
EC50 of Ca2+ mobilization, fold against the 17-mers [3]: ~200 fold
EC50 (nM), Ca2+ mobilization assay [2]: 176 nM

B4: PALM-17A2 (56) (peptide)
peptide: Palmitoyl-KFRRQRPRLSHKGP[Nle][Aib][Phe(4-Br)]
EC50 (nM), Ca2+ mobilization assay [2]: 2.6 nM

B5: PEG-17A2 (57) (peptide)
peptide: KFRRQRPRLSHKGP[Nle][Aib][Phe(4-Br)]
modifications: not fully specified (N-terminus); also: Fmoc removal from PEG not given here
EC50 (nM), Ca2+ mobilization assay [2]: 6.3 nM

B6: PALM-NMe17A2 (58) (peptide)
peptide: Palmitoyl-KFRRQRPR[NMeL]SHKGP[Nle][Aib][Phe(4-Br)]
EC50 (nM), Ca2+ mobilization assay [2]: 11.3 nM

B7: PEG-NMe17A2 (59) (peptide)
peptide: KFRRQRPR[NMeL]SHKGP[Nle][Aib][Phe(4-Br)]
modifications: not fully specified (N-terminus); numbers in words are those of the source; also: N-terminal PEG from Fmoc-(PEG)6 propionic acid, Fmoc removal not given here
EC50 (nM), Ca2+ mobilization assay [2]: 2.5 nM

B8: α-MeArg8-apelin-17 A2 (13) (peptide)
peptide: KFRRQRP[αMeR]LSHKGP[Nle][Aib][Phe(4-Br)]
notes: also called α-MeArc8-apelin-17 A2
Ki [1]: 0.13 nM
times less potent than native 2 [1]: ~3 fold

B9: α-MeLeu9-apelin-17 A2 (15) (peptide)
peptide: KFRRQRPR[αMeL]SHKGP[Nle][Aib][Phe(4-Br)]
Ki [1]: 0.18 nM
times less potent than native 2 [1]: ~3 fold

B10: azaArg8-apelin-17 A2 (17) (peptide)
peptide: KFRRQRP[azaArg]LSHKGP[Nle][Aib][Phe(4-Br)]
Ki [1]: 0.14 nM
times less potent than native 2 [1]: ~3 fold

B11: azaLeu9 apelin-17 A2 peptide (19) (peptide)
peptide: KFRRQRPR[azaLeu]SHKGP[Nle][Aib][Phe(4-Br)]
Ki [1]: 0.15 nM
times less potent than native 2 [1]: ~3 fold

B12: pyr-1-apelin-13 A2 (4) (peptide)
peptide: XRPRLSHKGPXXX
modifications: pGlu at 1; Nle at 11; Aib at 12; paraBrPhe at 13
notes: Synthetic ACE2-resistant analogue; also called parent peptide 4; none (A2)
Ki [1]: 2 nM
factor of weaker affinity compared to 1 [1]: 6 fold

B13: D-Leu9-apelin-17 A2 (9) (peptide)
peptide: KFRRQRPR[dL]SHKGP[Nle][Aib][Phe(4-Br)]
Ki [1]: 0.14 nM
times less potent than native 2 [1]: ~3 fold

B14: N-MeLeu9-apelin-17 A2 (11) (peptide)
peptide: KFRRQRPR[NMeL]SHKGP[Nle][Aib][Phe(4-Br)]
notes: also called Apelin-NMe17A2; NMeLeu-17A2
Ki [1]: 0.45 nM
times less potent than native 2 [1]: ~3 fold

B15: apelin-17 (2) (peptide)
peptide: KFRRQRPRLSHKGPMPF
notes: Native isoform; apelin residues 61-77; also called native apelin-17; native isoform 2
Ki [1]: 0.053 nM
